From patent US20040192900A1 (published 2004)

biological target: CD22mFc (UniProt P20273 20-687); assay: Biacore

Row | Binder | Kd
1 | chimeric 5/44 variant K60R (antibody, V domains shown) VH: EVQLQQSGTVLARPGASVKMSCKASGYRFTNYWIHWVKQRPGQGLEWIGGINPGNNYTTYRRNLKGKATLTAVTSASTAYMDLSSLTSEDSAVYYCTREGYGNYGAWFAYWGQGTLVTVSS VL: DVVVTQTPLSLPVSFGDQVSISCRSSQSLANSYGNTFLSWYLHKPGQSPQLLIYGISNRFSGVPDRFTGSGSGTDFTLKISTIKPEDLGMYYCLQGTHQPYTFGGGTKLEIKR | 0.204 nM
2 | chimeric 5/44 variant T57A (antibody, V domains shown) VH: EVQLQQSGTVLARPGASVKMSCKASGYRFTNYWIHWVKQRPGQGLEWIGGINPGNNYATYKRNLKGKATLTAVTSASTAYMDLSSLTSEDSAVYYCTREGYGNYGAWFAYWGQGTLVTVSS VL: DVVVTQTPLSLPVSFGDQVSISCRSSQSLANSYGNTFLSWYLHKPGQSPQLLIYGISNRFSGVPDRFTGSGSGTDFTLKISTIKPEDLGMYYCLQGTHQPYTFGGGTKLEIKR | 0.066 nM
3 | chimeric 5/44 variant N55Q (antibody, V domains shown) VH: EVQLQQSGTVLARPGASVKMSCKASGYRFTNYWIHWVKQRPGQGLEWIGGINPGNQYTTYKRNLKGKATLTAVTSASTAYMDLSSLTSEDSAVYYCTREGYGNYGAWFAYWGQGTLVTVSS VL: DVVVTQTPLSLPVSFGDQVSISCRSSQSLANSYGNTFLSWYLHKPGQSPQLLIYGISNRFSGVPDRFTGSGSGTDFTLKISTIKPEDLGMYYCLQGTHQPYTFGGGTKLEIKR | 0.327 nM
